Experiment [1] concerns the target T1, human PD-L1 (human, UniProt Q9NZQ7 19-290).
T1 construct: whole, on cells; also called hPD-L1; PD-L1 antigen on MDA-MB-231 cells
The experiment can be described thus: FACS on MC38-hPD-L1 cells.

In experiment [2] the target is T2, GARP-TGF-β complex (293-GARP/TGFβ stably transfected cells) (UniProt Q14392 20-662; P01137 30-390).
T2 construct: whole, on cells; Complex of GARP and (latent) TGF-β on the cell surface; also called 293-GARP/TGFβ cell; 293F-GAPR/TGFβ/αvβ6 cells
The experiment can be described thus: FACS on 293-GARP/TGFβ cells.

Experiment [3] deals with T3, GARP (CHO-K1-GARP cell line that overexpresses GARP) (UniProt Q14392 20-662, limits assumed).
T3 construct: whole, on cells; also called GARP protein
T3 sequence (looked up): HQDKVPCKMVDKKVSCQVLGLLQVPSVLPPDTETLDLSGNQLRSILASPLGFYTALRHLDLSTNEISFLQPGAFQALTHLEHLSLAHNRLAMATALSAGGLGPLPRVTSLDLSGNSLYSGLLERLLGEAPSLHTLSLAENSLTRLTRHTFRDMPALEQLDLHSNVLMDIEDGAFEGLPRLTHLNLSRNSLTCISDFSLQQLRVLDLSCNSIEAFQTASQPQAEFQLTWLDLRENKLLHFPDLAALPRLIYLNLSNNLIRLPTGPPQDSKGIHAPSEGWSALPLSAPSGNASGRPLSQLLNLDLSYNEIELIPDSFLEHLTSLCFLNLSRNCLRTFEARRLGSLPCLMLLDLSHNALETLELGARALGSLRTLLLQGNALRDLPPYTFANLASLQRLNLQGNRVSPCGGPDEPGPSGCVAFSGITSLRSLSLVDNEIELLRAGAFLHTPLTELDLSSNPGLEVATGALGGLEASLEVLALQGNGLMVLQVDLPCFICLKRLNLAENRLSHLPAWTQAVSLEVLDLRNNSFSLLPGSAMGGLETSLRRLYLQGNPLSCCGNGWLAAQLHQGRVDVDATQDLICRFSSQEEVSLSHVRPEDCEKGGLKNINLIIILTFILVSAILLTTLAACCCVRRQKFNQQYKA
The experiment is described as follows: FACS on CHO-K1-GARP cells.

T1 sequence (Q9NZQ7 19-290): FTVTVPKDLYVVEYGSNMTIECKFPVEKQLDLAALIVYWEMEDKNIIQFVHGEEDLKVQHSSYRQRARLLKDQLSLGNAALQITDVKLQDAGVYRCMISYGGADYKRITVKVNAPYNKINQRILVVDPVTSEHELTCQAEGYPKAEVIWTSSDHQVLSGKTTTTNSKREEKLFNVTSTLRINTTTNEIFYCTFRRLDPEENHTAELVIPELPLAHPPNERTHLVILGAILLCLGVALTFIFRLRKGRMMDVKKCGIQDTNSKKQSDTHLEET

B1: antibody m212-hu (antibody, V domains shown)
VH: QVQLVQSGAEVKKPGSSVKVSCKASGYIFTSYWMHWVKQAPGQGLEWIGRIAPNSGGAHYHEKFKTKVTITADKSTSTAYMEFSSLRSEDTAVYYCARGNYGMDYWGQGTAVTVSS
VL: DIQMTQSPSSLSASVGDRVTITCRASQDISNYLNWYQQKPGGAPELLIYYTSTLHSGVPSRFSGSGSGTDYTLTISSLQPEDFATYFCQQVNTLPFTFGSGTKLEIK
notes: Humanized m212
As for B1, the binding result in experiment [1] is “no binding (tested: initial concentration 200 nM)”. Also, the EC50 in experiment [2] was less than 2 nM; in experiment [3], 1.4 nM.

B2: antibody m305-hu (antibody, V domains shown)
VH: QVQLVQSGAEVKKPGASVKVSCKTSGYTFTDYNMNWVKQAPGQGLEWIGDINPYSGGTIYNQKFKGRATLTTDTSTSTAYMELRSLRSDDTAVYYCARVSKGSGDYWGQGTLVTVSS
VL: DIQMTQSPSSLSASVGDRVTITCRASQEISGYLSWLQQKPGGAPKRLIYAASTLDSGVPSRFSGSRSGTDYTLTISSLQPEDFATYYCLQYASYPTCTFGGGTKVEIK
notes: Humanized m305
Take B2: the EC50 is 2.1 nM in experiment [2] and 0.45 nM in experiment [3].

These data come from patent US20240383974A1 (BETTA PHARMACEUTICALS, published 2024).
